Data from article PMC6853222.

Columns and labels:
[1] = target: GII.3 huNoV TV24 P protein (GII.3 human norovirus TV24); test: crystal structure; TV24 P protein, native and with A tetrasaccharide; hanging drop vapor diffusion, 9.6% PEG 3350, 160 mM ammonium citrate tribasic pH 7.0, 20 mM tri-sodium citrate pH 5.6, 500 mM 1,6-hexanediol, 20 °C; homodimers in the asymmetric unit
[2] = target: GII.11 porNoV VA34 P protein (GII.11 porcine norovirus VA34); test: crystal structure; VA34 P protein, native; hanging drop vapor diffusion, 100 mM Tris pH 8.0, 16% PEG 3350, 6% tacsimate pH 8.0, 20 °C

Substance | stoichiometry N [1] | stoichiometry N [2]
GII.3 huNoV TV24 P protein (domain or fragment) | 2 | 
GII.11 porNoV VA34 P protein (domain or fragment) |  | 2
